Each block holds one binder with its values, some of them ahead of it.
Legend:
Assay in all cases: ITC; peptides (0.6–1.0 mM) titrated into the cell with 180–220 μM protein at 16 °C; 20 mM Tris-HCl pH 7.5, 150 mM NaCl, 10 μM Zn2+; one-site binding model
Conditions in all cases: both partners purified
[1] = target: T1, full-length Pirh2 (residues 1–261) (human, UniProt Q96PM5 1-261)
T1 construct: human Pirh2 (Rchy1, RING finger and CHY zinc finger domain-containing protein 1), residues 1–261; Cloned into pET28-MKH8SUMO; the tag was cut off with TEV protease; also called Rchy1; p53-induced RING-H2 protein; source: E. coli BL21 (DE3), purified (Ni-NTA, TEV cleavage, SEC); not shown: 8xHis-SUMO, N-terminal, cleaved
T1 sequence (looked up): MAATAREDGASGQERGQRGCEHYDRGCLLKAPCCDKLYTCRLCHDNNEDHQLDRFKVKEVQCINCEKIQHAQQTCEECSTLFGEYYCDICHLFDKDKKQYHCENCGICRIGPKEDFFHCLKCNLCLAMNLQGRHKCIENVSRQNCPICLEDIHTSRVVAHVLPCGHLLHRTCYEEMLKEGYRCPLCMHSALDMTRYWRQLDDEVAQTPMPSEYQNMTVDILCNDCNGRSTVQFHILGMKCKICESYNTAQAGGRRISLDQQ

[2] = target: T2, Pirh2 NTD + RING (residues 1–189) (human, UniProt Q96PM5 1-189)
T2 construct: human Pirh2 (Rchy1), NTD + RING, residues 1–189; source: E. coli BL21 (DE3), purified (Ni-NTA, TEV cleavage, SEC); not shown: 8xHis-SUMO, N-terminal, cleaved
T2 sequence (looked up): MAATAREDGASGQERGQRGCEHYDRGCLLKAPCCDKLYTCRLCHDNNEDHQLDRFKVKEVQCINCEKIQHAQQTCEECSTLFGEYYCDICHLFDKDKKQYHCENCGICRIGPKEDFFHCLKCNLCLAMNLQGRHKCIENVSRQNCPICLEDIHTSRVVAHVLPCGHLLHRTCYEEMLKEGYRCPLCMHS

[3] = target: T3, Pirh2 NTD (residues 1–137) (human, UniProt Q96PM5 1-137)
T3 construct: human Pirh2 (Rchy1), NTD, residues 1–137; also called CHY zinc finger; source: E. coli BL21 (DE3), purified (Ni-NTA, TEV cleavage, SEC); not shown: 8xHis-SUMO, N-terminal, cleaved
T3 sequence (looked up): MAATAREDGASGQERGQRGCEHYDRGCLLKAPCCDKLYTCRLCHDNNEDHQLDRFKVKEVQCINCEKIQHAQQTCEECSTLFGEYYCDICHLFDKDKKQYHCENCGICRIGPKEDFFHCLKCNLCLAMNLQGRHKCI

Kd [1]: 0.9 µM
Kd [2]: 0.5 µM
Kd [3]: 5.5 µM
B1: Ala6/C-degron peptide (sequence: YKTSAAAAAA) (peptide)
peptide: YKTSAAAAAA
notes: decapeptide with a C-terminal six-Ala degron and a free C-terminus; also called decapeptide containing the Ala6/C-degron; six-Ala peptide; source: synthetic peptide

Kd [2]: 15 µM
B2: Ala6/C-degron peptide with the threonine mutation of Ala-2 (peptide)
chain: YKTSAAAATA
